Laboratory results published in publication PMC5758897 (Nucleic Acids Research, 2017).
Substitutions are numbered along the chain they refer to. Each block holds one molecule with its values, some of them ahead of it. Where no end group is shown, it is not given here.

How the values were obtained:
[1] = biological target: T1, YEATS domain of Yaf9 (WT, aa 8–171) (Saccharomyces cerevisiae, UniProt P53930); test: 1H,15N HSQC NMR titration, Yaf9 YEATS WT; format: binding; details: free acetyllysine (NMR) vs H3K27ac peptide
T1 sequence (P53930 8-171): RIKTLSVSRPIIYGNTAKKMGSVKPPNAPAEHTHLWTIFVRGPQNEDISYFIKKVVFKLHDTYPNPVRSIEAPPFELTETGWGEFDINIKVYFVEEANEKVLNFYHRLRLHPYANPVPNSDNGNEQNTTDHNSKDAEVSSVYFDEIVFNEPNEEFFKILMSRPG

[2] = biological target: YEATS domain of Yaf9 (aa 8–171), wild type (S. cerevisiae) (UniProt P53930); test: other fluorescence titration
[3] = biological target: T2, E91G mutant of Yaf9-YEATS (aa 8–171) (S. cerevisiae, UniProt P53930 8-171, E91G); test: other fluorescence titration
T2 sequence (looked up): T1 sequence (P53930 8-171) with E84G

[4] = biological target: T3, AF9 YEATS domain (aa 1–138), wild type (human, UniProt P42568 1-138); test: other fluorescence titration
T3 sequence (looked up): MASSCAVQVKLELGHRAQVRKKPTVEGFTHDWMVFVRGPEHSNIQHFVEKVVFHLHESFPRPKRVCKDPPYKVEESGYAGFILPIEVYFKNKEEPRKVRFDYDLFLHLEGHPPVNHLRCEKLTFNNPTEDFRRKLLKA

[5] = biological target: T4, G83E mutant of Taf14-YEATS (aa 1–137) (yeast, UniProt P35189 1-137, G83E); test: other fluorescence titration
T4 sequence (looked up): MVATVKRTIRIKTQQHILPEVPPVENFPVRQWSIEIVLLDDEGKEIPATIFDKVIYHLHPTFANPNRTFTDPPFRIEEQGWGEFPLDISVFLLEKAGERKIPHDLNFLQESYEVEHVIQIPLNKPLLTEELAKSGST

[6] = biological target: T5, D104R mutant of Taf14-YEATS (aa 1–137) (yeast, UniProt P35189 1-137, D104R); test: other fluorescence titration
T5 sequence (looked up): T4 sequence (looked up) with E83G, D104R

[7] = biological target: T6, YEATS domain of Taf14 (aa 1–137), wild type (yeast, UniProt P35189 1-137); test: other fluorescence titration
T6 sequence (looked up): T4 sequence (looked up) with E83G

Molecule: CC(=O)NCCCC[C@H](N)C(=O)O [Kac, acetyllysine]
binding of free acetyllysine weaker [1]: over 200 fold

Kd [2]: 10 µM
Molecule: histone H3K27ac peptide (aa 21–31 of H3) (from UniProt P68431 22-32)

fold increase in binding against WT Yaf9-YEATS [3]: ~1.5 fold
binding result [4]: binds
fold decrease in binding against WT Taf14-YEATS [5]: ~2 fold
binding result [6]: binds
binding result [7]: binds
Molecule: QTARK(Ac)STGG (peptide, UniProt P68431 6-14, looked up, also: biotinylated, site not given here) [histone H3K9ac peptide (aa 5–13 of H3)]
